Experimental data taken from PMC8881488, “Intricate coupling between the transactivation and basic-leucine zipper domains governs phosphorylation of transcription factor ATF4 by casein kinase 2” (The Journal of Biological Chemistry, 2022).

Molecular target: T1, ATF4-275 (isolated transactivation domain of activating transcription factor 4) (human, UniProt P18848 1-275)
T1 construct: 15N-labelled (expressed in minimal medium) for the NMR titration; also called isolated TAD; ATF4 TAD; not shown: GST, N-terminal, cleaved
T1 sequence (looked up): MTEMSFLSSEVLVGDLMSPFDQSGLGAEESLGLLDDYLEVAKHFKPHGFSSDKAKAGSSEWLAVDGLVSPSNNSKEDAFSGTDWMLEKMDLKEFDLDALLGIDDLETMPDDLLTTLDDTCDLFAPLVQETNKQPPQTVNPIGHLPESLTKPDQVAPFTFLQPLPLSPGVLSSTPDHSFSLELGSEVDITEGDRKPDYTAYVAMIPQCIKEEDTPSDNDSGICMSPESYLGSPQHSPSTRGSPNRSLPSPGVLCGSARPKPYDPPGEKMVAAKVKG
Assay: NMR titration; 15N-labeled ATF4-275 titrated with increasing concentrations of unlabeled ATF4-bZip; 2D 1H-15N TROSY-HSQC, amide crosspeak intensity ratios; NMR samples in 20 mM MES pH 6.5, 50 mM NaCl
Conditions: both partners purified

binding result: binds
B1: ATF4-bZip (isolated basic-leucine zipper domain of activating transcription factor 4) (domain or fragment, human, UniProt P18848 276-351, looked up)
chain: EKLDKKLKKMEQNKTAATRYRQKKRAEQEALTGECKELEKKNEALKERADSLAKEIQYLKDLIEEVRKARGKKRVP
notes: The limits 276-351 are those printed for the bZip domain; also called bZip domain; isolated bZip domain; source: E. coli BL21(DE3), purified (Glutathione-Sepharose, TEV cleavage, Superdex 200 gel filtration); not shown: GST, N-terminal, cleaved
